The supplement of paper PMC9170038

Test system: MS2 coat protein
Assay: apparent KD of MS2 coat protein; higher = weaker reporter binding
Conditions: Eterna round: R107; input ligand: theophylline 2 mM
Procedure: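 RNA-MaP round R107: designed RNA switches with theophylline, tryptophan, arginine or FMN aptamers are transcribed on-chip within common flanks. They are titrated with SNAP-549-labelled MS2 coat protein in RNA-MaP buffer (100 mM Tris pH 7.5, 80 mM KCl, 4 mM MgCl2), without ligand or with the indicated ligand. Median apparent KD per design.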

Row | Sequence | apparent KD of MS2 coat protein
1 | UUCAGCUAGUCGGCCGCCACUACCUGAGGAUCACCCUGGUAGGUCCACACUGCUUCGGCAGUGAGUAGGACCGGGACUAGCUGAG | 19 nM
2 | CAAUAUAUAACGGCCGCCACUUACUCAUGAGGUAACAACAUGAGGAUCACCCAUGUUUGAGGAUCAAGGACCGGGUUAUAUAUUG [AstrosSSTry#19] | 27.1 nM
3 | GGGUACAUCGCGGCCGCCACUUAUGUAAAUACAUGAGGAUCACCCAUGUCGAUGGAGACAUCGGAAAGGACCGGGUGAUGUACCG | 262 nM
4 | UUCAUGAGGAUUGAUACCAGCCACCAACAUGAGGAACUUACAUGAGGAUCACCCAUGUGAGGCCCUUGGCAGCAAGCAUACAUGA [Exclusion Theophylline B 3] | 48.5 nM
5 | AGCUCGCAUCCUCAAAGCGUCAAAGACGCACGAGGACCGGUACGGCCGCCACUCGACCUGAGGAUCACCCUGGUCUAAGCGAGCA [TrypAX 9 #SwitchBubble #AlternativeMS2 #MS2Late #CuTurnoff] | 48.8 nM
6 | UUAACAUGAGGAUCACCCAUGUUUGAUGAAGGAGCGACCAGAGGGUCAGGUAGGUCGCAUCACAUGAGGAUCACCCAUGUCGCCC [DOUBLE!!! :-D #13] | 25.8 nM
7 | CGCCCAGUUACGGCCGCCACUUCGAUGGCAAAUGUCGAGCCUCCACAUGAGGAUCACCCAUGUCGAAGGACCGGGUACUGCUUGC [theeternabot_sameState_MS2_Trp_B_17] | 38 nM
8 | CAUAUAUAUAGAAGGAGCGACAUGAGGAUCACCCAUGUCUACCACGUCGAAAGACGCUCAUGUCAGGUAGGUCGCUAUAUAUAUG [Astros-Eli-mod2] | 198 nM
9 | ACAUUUAACUGAAGGAGCGUGAUAAACAUGAGGAUCACCCAUGUACCAAAGAUUUUCAGUUCACAGGUAGGUCGCAGACUAAUGA [JR_ExcArginiB_Sub016] | 11.5 nM
10 | AUGCUUAUCAGAAGGAGCGUCAUUAACAUGAGGAUCACCCAUGUAACAUUGAAUUCGAUGAGACAGGUAGGUCGCUGAAUAGUAA [SS-ArgB27] | 41.3 nM
11 | UUGGGUUUGUGAAGGAGCGGGAAAGUUUUAUAGUGAAUCCUAACAUGAGGAUCACCCAUGUCCCAGGUAGGUCGCGCGGGUUUGG [12.Q] | 144 nM
12 | GGAGCUACGUCGGCCGCCACUAGCGGAUAUUACGUGUACAUGAGGAUCACCCAUGUAAUACGGUUUAGGACCGGGACGUAGCUCC [Lizard] | 20.6 nM
13 | GGACUAACCUGAAGGAGCGGCGCGCAGAAACUGCAAAUUCCUCCACACGAGGAUCACCCGUGUCAGGUAGGUCGCAGGUUAGUCG [ArgBX 28] | 12.6 nM

Same assay, conditions: Eterna round: R107; input ligand: tryptophan 2.4 mM

Row | Sequence | apparent KD of MS2 coat protein
14 | ACAAGUCCUCAUGAUACCAGCGAUGAGACAAAGUCUCAACAUGAGGAUCACCCAUGUACUCGCCCUUGGCAGCAUACGGUUUUUG [Onedxequla] | 573 nM
15 | AGAGUCUAGUCGGCCGCCACUCAUGUCCGAAGGACAUGAGGAUCACCCAUGUACCAAUGGUACAUGAGGACCGGGACUGGACUCA [Omei Tryp B SS C v3] | 7.34 nM
16 | AGAAAGAAACAAAACUCAAGGAGAACCGAAGGAGCGGCGAAAGAGCCAGGUAGGUCGCGGUCCUCAACAUGAGGAUCACCCAUGU | 96.6 nM
17 | UGUACCUAGUCGGCCGCCACUCAAUAAUGAGAGGAUCACCCUCAUAAACGAGUCAAAGACUCGAUGAGGACCGGGACUAGGUACU [Palindromic MS2 2 #AlternativeMS2 #Palindrome #StaticStem] | 21.1 nM
18 | CGGCCCUCACUUGAGGAACACCCAAGUGAUACCAGCCUGGAAACAGGCCCUUGGCAGCACUAGGUCAUCAAAGAUGACCAAGCCG [TheoAX 29 #OpenEnded #AlternativeMS2] | 23.1 nM
19 | AAAUGUGUAAAAGCUUUAACACCCUGAGAAGGAGCGCAAUAAAUUGCAGGUAGGUCGCUCAGACAUGAGGAUCACCCAUGUAACC [Atrabeor] | 40 nM
20 | GAUGAACUAUAUGAUACCAGACAACAUGAGGAUCACCCAUGUGAUUGUCGUCCUCUGCCUGUCCCUUGGCAGCGUAUAGUUUAUC [XTheo B #16] | 23.4 nM
21 | AGCCCGGGAGCGGCCGCCACUGGAGGCUGAGCGCGACAUGAGGAUCACCCAUGUGUGCCCGGCGUUAGGACCGGGCUCGCGUGGU [#1 Same State - Tryptophan B Attempt #23 (HarryS)] | 32.2 nM
22 | ACAUGAGGAUCACCCAUGUGCCGUCUUGAUACCAGACCCGAAGUAGUCCCUUGGCAGCAACUACGUGACGGUCGCCCAUGUGUAG [rremullin] | 14.7 nM
23 | GUCCGACAUGAGGAUCACCCAUGUACUGAAGGAGCGGACAAAUGUCCAGGUAGGUCGCAGCUAUAUGGUGUGGACCGAUCCGGAC [Ustius] | 22.4 nM
24 | CAAUAUAUAUGAAGGAGCGACAUGAGGAUCACCCAUGUCUACCACGUCGAAAGACGCUCAUGUCAGGUAGGUCGCAUAUAUAUUG [Astros-Eli-mod4] | 90.9 nM
25 | UCGCCCAGAAAGGAUUGCUGGGAUAUGGAAGGAGCGCUGAUGCCAGCAGGUAGGUCGCCAACGGACAUGAGGAUCACCCAUGUAC [Same State - Arginine A (Freestyle 6)] | 20.9 nM
26 | GCACAAGAUGGAAGGAGCGCUGGAAAAGGUCACAUGAGGAUCACCCAUGUUCUCCGAACCGAGCAGGUAGGUCGCUAUCUUGUGC [#09 Same State - Arginine B] | 41.7 nM
27 | UUCAGCUAGUCGGCCGCCACUACCUGAGGAUCACCCUGGUAGGUCCACACUGCUUCGGCAGUGAGUAGGACCGGGACUAGCUGAG | 52.7 nM
28 | UUUUUUAUCAUGGCGUAUCGGAAAACCGAUACCAGUACAGAAAUGUACCCUUGGCAGCGGCGUUUUACAUGAGGAUCACCCAUGU [Ex Theophylline A 4] | 14.9 nM
29 | CAAUAUAUAACGGCCGCCACUUACUCAUGAGGUAACAACAUGAGGAUCACCCAUGUUUGAGGAUCAAGGACCGGGUUAUAUAUUG [AstrosSSTry#19] | 18.4 nM
30 | UUCAUGAGGAUUGAUACCAGCCACCAACAUGAGGAACUUACAUGAGGAUCACCCAUGUGAGGCCCUUGGCAGCAAGCAUACAUGA [Exclusion Theophylline B 3] | 11.5 nM
31 | AGCUCGCAUCCUCAAAGCGUCAAAGACGCACGAGGACCGGUACGGCCGCCACUCGACCUGAGGAUCACCCUGGUCUAAGCGAGCA [TrypAX 9 #SwitchBubble #AlternativeMS2 #MS2Late #CuTurnoff] | 381 nM
32 | UUAACAUGAGGAUCACCCAUGUUUGAUGAAGGAGCGACCAGAGGGUCAGGUAGGUCGCAUCACAUGAGGAUCACCCAUGUCGCCC [DOUBLE!!! :-D #13] | 22.4 nM
33 | CAUAUAUAUAGAAGGAGCGACAUGAGGAUCACCCAUGUCUACCACGUCGAAAGACGCUCAUGUCAGGUAGGUCGCUAUAUAUAUG [Astros-Eli-mod2] | 147 nM
34 | AUUAACUGGUAAGAUACCAGAGUCGGGAUCUACAUGAGGAUCACCCAUGUUCUAAAGUCGCUCCCUUGGCAGCUUCAAUGAGUCG [theeternabot_sameState_MS2_Theo_B_27] | 34 nM
35 | UGCAUCAUAAUCAUGUAGGUGCUAGGUGAUACCAGCAUCGAAAGAUGCCCUUGGCAGCACCAACAUGAGGAUCACCCAUGUAAUA [(MT)''-(M)'-(T')-(Theo)-(Ms2)_Design1/22_1] | 231 nM
36 | UGUAUGUGAUGUGAUACCAGUCCAAUACUGGUAACAUGAGGAUCACCCAUGUAAUGAUGGGACCCUUGGCAGCACAUCGCAUACU [ThBS] | 242 nM
37 | ACAUUUAACUGAAGGAGCGUGAUAAACAUGAGGAUCACCCAUGUACCAAAGAUUUUCAGUUCACAGGUAGGUCGCAGACUAAUGA [JR_ExcArginiB_Sub016] | 10.8 nM
38 | AUGCUUAUCAGAAGGAGCGUCAUUAACAUGAGGAUCACCCAUGUAACAUUGAAUUCGAUGAGACAGGUAGGUCGCUGAAUAGUAA [SS-ArgB27] | 37.5 nM
39 | UUGGGUUUGUGAAGGAGCGGGAAAGUUUUAUAGUGAAUCCUAACAUGAGGAUCACCCAUGUCCCAGGUAGGUCGCGCGGGUUUGG [12.Q] | 80.8 nM
40 | GGACUAACCUGAAGGAGCGGCGCGCAGAAACUGCAAAUUCCUCCACACGAGGAUCACCCGUGUCAGGUAGGUCGCAGGUUAGUCG [ArgBX 28] | 12.7 nM
